Test results taken from patent publication US20220396631A1 (Novartis, published 2022).
Substitutions are numbered along the chain they refer to.

T1: human BCMA (human, UniProt Q02223 1-54, limits assumed)
T1 construct: also called B-cell maturation antigen; TNFRSF17
T1 sequence (looked up): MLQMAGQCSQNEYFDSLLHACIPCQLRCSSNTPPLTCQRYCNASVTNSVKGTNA

T2: Human CD2 (human, UniProt P06729 25-209)
T2 construct: also called recombinant human CD2; CD2 extracellular domain
T2 sequence: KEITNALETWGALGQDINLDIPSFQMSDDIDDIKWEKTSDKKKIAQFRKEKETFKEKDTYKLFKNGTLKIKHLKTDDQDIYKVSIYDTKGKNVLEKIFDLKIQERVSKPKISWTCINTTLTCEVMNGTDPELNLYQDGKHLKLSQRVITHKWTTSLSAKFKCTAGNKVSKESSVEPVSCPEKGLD

B1: PI-61 (antibody, V domains shown)
VH: QVQLQESGGGVVQPGRSLRLSCAASGFTFSSYGMHWVRQAPGKGLEWVAVISYDGSNKYYADSVKGRFTISRDNSKNTLYLQMNSLRAEDTAVYYCGGSGYALHDDYYGLDVWGQGTLVTVSS
VL: QSALTQPASVSGSPGQSITISCTGTSSDVGGYNYVSWYQQHPGKAPKLMIYDVSNRPSGVSNRFSGSKSGNTASLTISGLQAEDEADYYCSSYTSSSTLYVFGSGTKVTVL
notes: also called parental PI-61 antibody; P1-61
B2: H2/L2-36 (antibody, V domains shown)
VH: B1 VH with V2A, E6S, D54K
VL: B1 VL with D52E, P57L, S58R, S69F
notes: AB3 family
B3: H2/L2-22 (antibody, V domains shown)
VH: B1 VH with V2A, E6S, G8E, D54H
VL: B1 VL with D52E, P57L, S69F
notes: AB3 family
B4: H3-10 (antibody, V domains shown)
VH: B1 VH with E6S, D54N, G55D, S56L, A102E, L103F, H104Q, D105G
VL: B1 VL with D52E, P57L, S58R, S69F
notes: AB3 family
B5: H3-8 (antibody, V domains shown)
VH: B1 VH with V2A, E6G, G8E, G55D, S56A, N57H, D106Q, Y108K, G109P, L110V
VL: B1 VL with D52E, P57L, S58R, S69F
notes: AB3 family
B6: H3-3 (antibody, V domains shown)
VH: B1 VH with E6S, F29V, D54S, D106Q, Y108K, G109P, L110V
VL: B1 VL with D52E, P57L, S58R, S69F
notes: AB3 family
B7: H2/L2-47 (antibody, V domains shown)
VH: B1 VH with E6S, G8E, D54K
VL: B1 VL with S58W, S69F
notes: AB3 family
B8: H3-14 (antibody, V domains shown)
VH: B1 VH with E6G, G55D, S56A, N57H, D106Q, Y108K, G109P, L110V
VL: B1 VL with D52E, P57L, S69F, T98A
notes: AB3 family
B9: H2/L2-80 (antibody, V domains shown)
VH: B1 VH with E6S, D54T
VL: B1 VL with P57A, S58W, S69F, T98A
notes: AB3 family
B10: H3-12 (antibody, V domains shown)
VH: B1 VH with V2A, E6S, G8E, G55E, A102E, L103V, H104D, D105Q
VL: B1 VL with D52E, P57L, S58R, S69F
notes: AB3 family
B11: H3-15 (antibody, V domains shown)
VH: B1 VH with E6G, F29V, G55D, S56A, N74S, L103Y, H104D, D105G
VL: B1 VL with D52E, P57L, S58G, S69F, T98A
notes: AB3 family
B12: H2/L2-20 (antibody, V domains shown)
VH: B1 VH with V2A, E6S, F29V, D54T
VL: B1 VL with P57L, S58R, S69F, T98A
notes: AB3 family
B13: H2/L2-18 (antibody, V domains shown)
VH: B1 VH with V2A, E6G, D54K, N57H
VL: B1 VL with S58W, S69F
notes: AB3 family
B14: H3-13 (antibody, V domains shown)
VH: B1 VH with G55D, S56A, N57H, D106Q, Y108K, G109P, L110V
VL: B1 VL with D52E, P57L, S58R, S69F
notes: AB3 family
B15: H3-2 (antibody, V domains shown)
VH: QAQLQESEGGVVQPGGSLRLSCAASGFTFSSYGMHWVRQAPGKGLEWVAVISYNDLNKYYADSVKGRFTISRDNSKNTLYLQMNSLRAEDTAVYYCGGSGYALHDFQDPTDVWGQGTLVTVSS
VL: B1 VL with D52E, P57L, S58R, S69F
notes: AB3 family
B16: H3-1 (antibody, V domains shown)
VH: B1 VH with E6G, G55D, S56A, N57H, D106Q, Y108K, G109P, L110V
VL: B1 VL with D52E, P57L, S58R, S69F
notes: AB3 family
B17: H3-9 (antibody, V domains shown)
VH: B1 VH with E6G, G55D, S56A, N57H, D106Q, Y108K, G109P, L110V
VL: B1 VL with D52E, P57L, S58R, S69F, D87Y
notes: AB3 family
B18: H2/L2-83 (antibody, V domains shown)
VH: B1 VH with V2A, E6G, D54K
VL: B1 VL with D52E, P57L, S58R, S69F
notes: AB3 family
B19: H3-7 (antibody, V domains shown)
VH: B1 VH with E6S, G8E, F29L, D54T, A102E, L103F, D105E
VL: B1 VL with D52E, P57L, S58R, S69F
notes: AB3 family
B20: H2/L2-88 (antibody, V domains shown)
VH: B1 VH with E6S, G8E, D54K
VL: B1 VL with D52E, P57L, S58R, S69F, T98A
notes: AB3 family
B21: AB3 (antibody, V domains shown)
VH: B1 VH with Q5V, F29V, D54T
VL: B1 VL with P57L, S58R, T98A
notes: AB3 family
B22: H3-6 (antibody, V domains shown)
VH: B1 VH with V2A, E6R, G55D, S56A, N57H, D106Q, Y108K, G109P, L110V
VL: B1 VL with D52E, P57L, S58R, S69F, T98A
notes: AB3 family
B23: H3-5 (antibody, V domains shown)
VH: B1 VH with E6G, D54T, S56A, A102N
VL: B1 VL with D52E, P57L, S69F
notes: AB3 family
B24: H3-4 (antibody, V domains shown)
VH: B1 VH with E6G, G55D, S56A, N57H, D106Q, Y108K, G109P, L110V
VL: B1 VL with D52E, P57L, S58R, S69F, T98A
notes: AB3 family
B25: H2/L2-68 (antibody, V domains shown)
VH: B1 VH with V2A, E6S, G8E, D54R, S56F, L110Q
VL: B1 VL with P57L, S69F
notes: AB3 family
B26: H3-11 (antibody, V domains shown)
VH: B1 VH with E6S, G8E, D54N, G55D, S56A, A102E, H104R
VL: B1 VL with D52E, P57L, S58R, S69F
notes: AB3 family
B27: CD58 Full ECD (ligand)
chain: SQQIYGVVYGNVTFHVPSNVPLKEVLWKKQKDKVAELENSEFRAFSSFKNRVYLDTVSGSLTIYNLTSSDEDEYEMESPNITDTMKFFLYVLESLPSPTLTCALTNGSIEVQCMIPEHYNSHRGLIMYSWDCPMEQCKRNSTSIYFKMENDLPQKIQCTLSNPLFNTTSSIILTTCIPSSGHSRHRGGGGSHHHHHHHH
notes: Recombinant, made in HEK293 cells
B28: CD58_IgV (ligand)
chain: SQQIYGVVYGNVTFHVPSNVPLKEVLWKKQKDKVAELENSEFRAFSSFKNRVYLDTVSGSLTIYNLTSSDEDEYEMESPNITDTMKFFLYVLESGGGGSHHHHHHHH
notes: Recombinant, made in HEK293 cells; also called CD58 domain 1; IgV domain of CD58 (wild type)
B29: IgV V45C_M114C (ligand)
chain: B28 chain with V16C, M85C
notes: Disulfide-stabilised variant
B30: IgV V54C_G88C (ligand)
chain: B28 chain with V25C, G59C
notes: Disulfide-stabilised variant
B31: IgV V45C_M105C (ligand)
chain: B28 chain with V16C, M76C
notes: Disulfide-stabilised variant

Target: T1, human BCMA
Assay: phage display selection

Row | Binder | binding result
1 | B1 | binds

Target: T1, human BCMA
Assay: affinity maturation of PI-61

Row | Binder | binding result
2 | B2 | binds
3 | B3 | binds
4 | B4 | binds
5 | B5 | binds
6 | B6 | binds
7 | B7 | binds
8 | B8 | binds
9 | B9 | binds
10 | B10 | binds
11 | B11 | binds
12 | B12 | binds
13 | B13 | binds
14 | B14 | binds
15 | B15 | binds
16 | B16 | binds
17 | B17 | binds
18 | B18 | binds
19 | B19 | binds
20 | B20 | binds
21 | B21 | binds
22 | B22 | binds
23 | B23 | binds
24 | B24 | binds
25 | B25 | binds
26 | B26 | binds

Target: T2, Human CD2
Assay: isothermal titration calorimetry; 100 uM CD2 titrated into 10 uM CD58 variant in HBS
Experimental: To ensure the binding affinity remained uncompromised by the additional of the stabilizing disulfide variance, isothermal calorimetry (ITC) was performed on the resulting recombinant CD58 proteins to determine their apparent KD and binding stoicheometry (n) to recombinant human CD2.
Briefly, recombinant human CD2 and recombinant human CD58 variants were dialyzed into HEPES-buffered saline (HBS). CD2 was diluted to final concentration of 100 μM, CD58 variants were diluted to 10 μM. CD2 was titrated into 10 μM of CD58 variants via multiple injections and ΔH (kcal/mole) determined using a MicroCal VP-ITC isothermal titration calorimeter (Malvern). Titrations of CD2 into HBS were used as a reference and KD and n determined from the resulting data.

Row | Binder | n (binding stoichiometry) | Kd [nM]
27 | B27 | 0.92 | –
28 | B28 | 0.96 | 610
29 | B29 | 0.88 | 380
30 | B30 | 0.83 | 600
31 | B31 | 0.97 | 880
